One assay relates to Meloidogyne spp. J2s. The experiment in a line: Light microscopy and SEM of cuticle damage of Meloidogyne spp. J2s. The assay is classed as cell-based, M. incognita or M. javanica. The procedure: Approximately 1000 J2s (second juvenile stage) of M. incognita or M. javanica were incubated per well of a 48-well plate with the following active enzyme concentrations (determined by E-64 titration) of papain dissolved in distilled water containing 16 mM L-cysteine (to activate the cysteine proteinase): 1.5 μM, 3 μM, 6.25 μM, 12.5 μM, 25 μM, 50 μM, 75 μM and 100 μM. Control wells contained J2s and distilled water with and without 16 mM L-cysteine, or J2s and 1 mM E-64, with and without 50 μM (active enzyme) papain, which had been preincubated for 25 mins at 40° C. Each enzyme concentration and the controls were set up in duplicate (n=2) or triplicate (n=3). The number of active J2s per well was counted prior to the addition of papain, and then the J2s were incubated in the dark at room temperature for 3 h. The number of mobile J2s per well was counted after 60, 120 and 180 mins. The nematode surfaces were examined for signs of damage using a light microscope (Zeiss Axioskop) at ×20, ×40 and ×100 magnification and photographs were taken with a Xillix Microimager. The same procedure was followed when setting up further experiments to compare the effects of 25 μM papain, 25 μM crude papaya latex (0.625 g/ml), 25 μM stem bromelain (0.18 g/ml) and 25 μM actinidin (active enzyme concentrations) with M. incognita, M. javanica or G. rostochiensis.
The effects on the J2 cuticle were more closely examined by scanning electron microscopy (SEM). Approximately 2000 J2s were used per enzyme or control treatment. These J2s were added to each of four 5 ml tubes and centrifuged at 2500 rpm 4° C. for 5 mins. The supernatant was removed and the J2s were resuspended with 500 μl of 100 μM papain, 100 μM actinidin (active enzyme concentrations) or distilled water with and without 16 mM L-cysteine (the enzyme dilutions were prepared with 16 mM L-cysteine dissolved in distilled water). The nematodes were incubated in the dark at ambient temperature for 4 h before centrifugation as above. The J2s were immediately fixed with 2.5% glutaraldehyde in 0.15M phosphate buffer, pH 7.2 for 1 h at room temperature and were then centrifuged as before prior to washing for 1 h in 0.15M phosphate buffer, pH 7.2 at 4° C. These J2s were then prepared for SEM as described previously by Stepek et al. (2005).

The test system of the next assay is Meloidogyne spp. eggs. Put plainly: Effect on eggs, hatching and development of Meloidogyne spp. The assay is classed as cell-based. The procedure: To determine if the enzymes affected the eggshell and/or the development and hatching of the juveniles which the eggs contain, approximately 300 Meloidogyne spp. eggs were incubated per well of a 48-well plate, in duplicate, in 50 μM (active enzyme) papain, prepared in 16 mM L-cysteine dissolved in distilled water, or distilled water with and without 16 mM L-cysteine. The number of eggs in each well was counted before the addition of papain and then the eggs were incubated in the dark at room temperature for 4 h. The number of eggs was counted before further incubation overnight. Finally, closer examination of the structure of the nematode eggs was performed using the light microscope at ×40 magnification.

For a further assay, the system named is Heterodera glycines J2. The experiment in a line: In vitro live/dead count of Heterodera glycines J2. The note with it: 250 μM active papain. The assay is classed as cell-based. As for the experimental part: Eggs of M. incognita race 1 from North Carolina State University, USA were collected from tomato-infected roots grown in a glasshouse at 23° C. in a 16:8 h light-dark regime. Eggs were extracted using 1% hypochlorite (NaClO) solution (Hussey and Barker, 1973) or by picking egg masses from tomato-infected roots. Juveniles (J2) were hatched from the eggs and egg masses in water. Heterodera glycines eggs were obtained from soil samples stored in Rothamsted-Research. Second stage juveniles (J2) were hatched from the eggs in water after 10 days. Pratylenchus penetrans were a gift from Dr. Deeren Anne-Marie from the Institute for Agricultural and Fisheries Research, Merelbeke, Belgium. The beneficial nematodes Steinernema feltiae and Heterorhabditis megidis were a gift from Dr. Paul Williams from Becker Underwood.
Control wells were set up which contained J2s and distilled water with 16 mM L-cysteine. Each enzyme concentration and the controls were set up in duplicate (i.e. n=2). […] The number of live and dead J2s per well was counted after each enzyme incubation. The same procedure was followed when setting up further experiments to compare the effects of these enzymes with Heterodera glycines J2, Pratylenchus penetrans, Steinernema feltiae and Heterorhabditis megidis.

A further assay relates to M. incognita J2. Put plainly: In planta bioassay, one soil application: nematode infection of tomato roots. The class given is in vivo, M. incognita on tomato plants. The note with it: with or without Vydate 125 μl; for Mean number of nematodes in roots: soil 16% organic matter, 11 days; for Reduction of nematode infection of tomato plants: vs controls. The procedure:
Oxamyl is supplied as 10% liquid Vydate. 125 μl of a solution 1000 fold dilution of 10% formulation (kindly supplied by DK from NIU) was applied to 5 g of the soil mixture with 16% organic matter, to give a partial nematicidal effect. Soil mixtures were wetted with PBS pH 7.2, 16 hrs prior nematode application of 1000 or 2000 M. incognita J2. Infected soil mixtures were treated with water (control) or 250 μM of active papain in 16 mM of L-cysteine or a combination of Vydate and 250 μM of active papain in 16 mM of L-cysteine. After 48 hs tomato seedlings one month old were added to the treated soils. After 11 days the roots were washed free of soil and chopped to approximately 2 mm pieces. The root pieces of each tomato plant was placed in muslin bags and stained with acid-fuchsin. The stained roots were examined under microscope and all the nematodes present in the roots were counted. In some experiments the soil mixture was wetted with PBS pH 7.2 or 250 μM of active papain for 16 hs to block the non-specific binding site present in the soil particles. After that approximately 1000 M. incognita J2 were applied to soil mixtures, followed by application of 250 μM of active papain in presence of 16 mM of L-cysteine, or water (control) or Vydate alone or a combination of 250 μM of active papain in presence of 16 mM of L-cysteine and Vydate. After 48 hours tomato seedlings one month old were added to the treated soils and after 11 days post infection nematode development inside root tissues was assessed as described above.
Approximately 2000 J2 of M. incognita were added to 5 g of 1:6 loam and sand which was previously wetted for 16 hs with PBS pH 7. Then a solution of 300 μM or 150 μM of active papain (in 16 mM of L-cysteine) with and without 125 μl Vydate was added to soil and left to react for 48 hs. After this period of time tomato seedlings one month old were added to the treated soil mixtures and placed in a glasshouse at 23° C. in a 16:8 h light-dark regime (Table 1). After 11 days nematode development in the root tissue was assessed.

Results on one molecule are retold here after patent US20110239327A1, “Nematicidal Effects of Cysteine Proteinases and Methods of Use Thereof to Treat Nematode Infestation” (priority 2007, published 2011).

B1: papain (protein, UniProt P00784 134-345, looked up)
Papain: IPEYVDWRQKGAVTPVKNQGSCGSCWAFSAVVTIEGIIKIRTGNLNEYSEQELLDCDRRSYGCNGGYPWSALQLVAQYGIHYRNTYPYEGVQRYCRSREKGPYAAKTDGVRQVQPYNEGALLYSIANQPVSVVLEAAGKDFQLYRGGIFVGPCGNKVDHAVAAVGYGPNYILIKNSWGTGWGENGYIRIKRGTGNSYGVCGLYTSSFYPVKN
notes: cysteine proteinase from Carica papaya, Merops C01.001, Sigma P3125
With B1, the “visible effects on the surface of the nematodes” value with Meloidogyne spp. J2s (papain 1.5 μM and 3 μM, light microscopy) is “no visible effects on the surface”. Further, the “digestion of the cuticle at the anterior end (light micrographs)” value in the assay on Meloidogyne spp. J2s (papain 6.25 μM and 100 μM active enzyme, 3 h) is listed as “Digestion of the cuticle was evident”. Also, the “appearance of the internal structures (light micrographs)” value with Meloidogyne spp. J2s (papain 100 μM, 3 h) is reported as “abnormal granular appearance of the internal structures”. Further, in the assay with Meloidogyne spp. J2s (papain, light microscopy x40 and x100, anterior end), the “active enzyme concentration causing blistering of the cuticle” value is “above 6.25 μM”. In addition, the “hatching and development of the J2 stage” value in the assay on Meloidogyne spp. eggs (incubation of the eggs with enzyme) is recorded as “not affected”. For the same molecule, the “effect on eggs / structure of the eggs” value in the assay with Meloidogyne spp. eggs (light microscopy, up to overnight incubation) is reported as “remained unaffected”. Further, the “state of the nematodes after incubation” value with Heterodera glycines J2 (16 hs) was “dead”. Besides, the recovery result in the assay with Heterodera glycines J2 (after 48 hs) is on record as “no recovery”. For the same molecule, in the assay on M. incognita J2 (papain 150 μM), the “Mean number of nematodes in roots” value came out at 272 and the “Reduction of nematode infection of tomato plants” value amounted to 14%. In addition, in the assay on M. incognita J2 (papain 300 μM), the “Mean number of nematodes in roots” value is 132 and the “Reduction of nematode infection of tomato plants” value is 60%.
